Changes are numbered by the printed parent chain.
T1: biotinylated recombinant human IL-12Rβ2 (human, UniProt Q99665 24-622, random biotinylated)
T1 construct: Recombinant protein produced in-house, biotinylated; also called hIL-12RB2; human IL-12RB2
T1 sequence: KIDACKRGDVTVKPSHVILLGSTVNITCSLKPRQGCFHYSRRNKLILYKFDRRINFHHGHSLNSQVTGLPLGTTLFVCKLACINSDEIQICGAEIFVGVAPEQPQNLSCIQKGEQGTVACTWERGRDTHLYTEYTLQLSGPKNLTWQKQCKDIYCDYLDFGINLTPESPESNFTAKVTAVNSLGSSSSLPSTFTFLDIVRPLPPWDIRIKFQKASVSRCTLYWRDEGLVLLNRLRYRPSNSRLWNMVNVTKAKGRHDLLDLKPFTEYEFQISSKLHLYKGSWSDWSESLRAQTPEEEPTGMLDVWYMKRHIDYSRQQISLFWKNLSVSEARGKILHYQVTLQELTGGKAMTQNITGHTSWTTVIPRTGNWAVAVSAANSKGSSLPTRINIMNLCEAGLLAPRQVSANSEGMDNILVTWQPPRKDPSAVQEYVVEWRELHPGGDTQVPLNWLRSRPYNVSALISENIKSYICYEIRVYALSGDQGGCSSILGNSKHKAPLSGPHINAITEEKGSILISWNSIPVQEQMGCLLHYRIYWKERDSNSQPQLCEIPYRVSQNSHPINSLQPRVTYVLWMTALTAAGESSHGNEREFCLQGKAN

T2: biotinylated recombinant mouse IL-12Rβ2 (mouse, UniProt P97378 24-637, random biotinylated)
T2 construct: Recombinant protein produced in-house, biotinylated; also called mIL-12RB2; mouse IL-12RB2
T2 sequence: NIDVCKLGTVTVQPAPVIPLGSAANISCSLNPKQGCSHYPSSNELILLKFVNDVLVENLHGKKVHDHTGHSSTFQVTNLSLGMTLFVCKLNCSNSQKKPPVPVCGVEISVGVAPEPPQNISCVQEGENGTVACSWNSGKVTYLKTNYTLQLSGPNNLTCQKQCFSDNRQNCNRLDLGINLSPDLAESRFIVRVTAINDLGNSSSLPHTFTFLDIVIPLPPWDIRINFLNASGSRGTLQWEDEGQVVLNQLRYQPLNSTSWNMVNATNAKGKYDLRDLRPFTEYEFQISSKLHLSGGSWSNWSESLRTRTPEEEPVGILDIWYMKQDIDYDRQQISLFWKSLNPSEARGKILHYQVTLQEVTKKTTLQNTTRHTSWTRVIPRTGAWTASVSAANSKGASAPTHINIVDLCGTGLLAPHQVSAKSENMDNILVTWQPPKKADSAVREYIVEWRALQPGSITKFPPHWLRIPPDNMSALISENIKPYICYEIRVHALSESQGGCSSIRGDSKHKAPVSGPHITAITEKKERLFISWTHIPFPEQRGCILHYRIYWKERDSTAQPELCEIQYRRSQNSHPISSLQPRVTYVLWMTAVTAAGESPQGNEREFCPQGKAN

B1: anti-IL-12Rβ2 VHH clone 20500 (VHH, not shown: small tags and cut ends)
VHH: QVQLQESGGGLVQPGGSLRLSCAASGFTFSSYGMGWFRQAPGKEREFVAAISRDARITDYADSVKGRFTISRDNAKNTAYLEMNSLNPEDTAVYFCAAAYTYSGSHYVTARSSDYHSWGQGTQVTVSS
notes: tested as periplasmic extract; also called 2CAM81
B2: anti-IL-12Rβ2 VHH clone 20514 (VHH, not shown: small tags and cut ends)
VHH: B1 VHH with P14A, G16D, A23I, F27P, T28S
notes: tested as periplasmic extract; also called 3CAM70
B3: anti-IL-12Rβ2 VHH clone 20509 (VHH, not shown: small tags and cut ends)
VHH: B1 VHH with P14A, S25A, F27R, E46D, E82Q, S117T, V124D
notes: tested as periplasmic extract; also called 3CAM30
B4: anti-IL-12Rβ2 VHH clone 20544 (VHH, not shown: small tags and cut ends)
VHH: B1 VHH with P14A, S17P, F27R, E46D, A75V, A79V, E82Q
notes: tested as periplasmic extract; also called 3CAMS19
B5: anti-IL-12Rβ2 VHH clone 20547 (VHH, not shown: small tags and cut ends)
VHH: B1 VHH with P14A, F27R, E46D, D54G, I57N, T58A, E82Q, H116A, S117Y
notes: tested as periplasmic extract; also called 3CAMS47
B6: anti-IL-12Rβ2 VHH clone 20541 (VHH, not shown: small tags and cut ends)
VHH: B1 VHH with P14A, F27R, F95S
notes: tested as periplasmic extract; also called 3CAMS9
B7: anti-IL-12Rβ2 VHH clone 20505 (VHH, not shown: small tags and cut ends)
VHH: B1 VHH with L11S, P14A, F27R
notes: tested as periplasmic extract; also called 3CAM4
B8: anti-IL-12Rβ2 VHH clone 20539 (VHH, not shown: small tags and cut ends)
VHH: B1 VHH with P14A, F27R, D54G, I57N, Y80F, E82Q, S117T
notes: tested as periplasmic extract; also called 2CAMS87
B9: anti-IL-12Rβ2 VHH clone 20536 (VHH, not shown: small tags and cut ends)
VHH: B1 VHH with L11M, P14A, F27R, D54G, I57N, E82Q, H116P, S117Y
notes: tested as periplasmic extract; also called 2CAMS53
B10: anti-IL-12Rβ2 VHH clone 20548 (VHH, not shown: small tags and cut ends)
VHH: B1 VHH with P14A, A24D, F27R, D54G, E82Q
notes: tested as periplasmic extract; also called 3CAMS50
B11: anti-IL-12Rβ2 VHH clone 20540 (VHH, not shown: small tags and cut ends)
VHH: QVQLQESGGGLVQAGDSLRISCAASGRTFSSYGMGWFRQAPGKERDFVAAISRDARYTDYADSVKGRFTISKDNAKNTAYLQMNSLNPEDTAVYFCAAAYTYSGSHYVTARSGDYNYWGQGTQVTVSS
notes: tested as periplasmic extract; also called 3CAMS5
B12: anti-IL-12Rβ2 VHH clone 20516 (VHH, not shown: small tags and cut ends)
VHH: B1 VHH with P14A, F27R, G35S, E46D, A75V, A79V, E82Q
notes: tested as periplasmic extract; also called 3CAM85
B13: anti-IL-12Rβ2 VHH clone 20538 (VHH, not shown: small tags and cut ends)
VHH: B1 VHH with G16D, F27R, D54G, I57N, E82Q, H116P, S117Y
notes: tested as periplasmic extract; also called 2CAMS83
B14: anti-IL-12Rβ2 VHH clone 20511 (VHH, not shown: small tags and cut ends)
VHH: B11 VHH with D16E, R19T, I20L, A23T
notes: tested as periplasmic extract; also called 3CAM36
B15: anti-IL-12Rβ2 VHH clone 20504 (VHH, not shown: small tags and cut ends)
VHH: QVQLQESGGGLVQAGGSLKLSCAATGFILDYVGVGWFRQAPGKERDFVAAISRDARITDYADSVKGRFTISRDNAKNTAYLQMNSLNPEDTAVYFCAAAYTYSGSHYVTARSSDYHTWGQGTQVTVSS
notes: tested as periplasmic extract; also called 3CAM3
B16: anti-IL-12Rβ2 VHH clone 20444 (VHH, not shown: small tags and cut ends)
VHH: QVQLQESGGGLVQAGGSLRLSCTASGSIFAIDDMYWYRQAPGKQREFVAYITATNSANYLDSVNGRFTISRDNAKNSVYLQMNSLKPEDTAVYYCNAKQIVGFQIDEYWGQGTQVTVSS
notes: tested as periplasmic extract; also called 2CRM18
B17: anti-IL-12Rβ2 VHH clone 20456 (VHH, not shown: small tags and cut ends)
VHH: B16 VHH with A14P, R19T
notes: tested as periplasmic extract; also called 3CRM14
B18: anti-IL-12Rβ2 VHH clone 20529 (VHH, not shown: small tags and cut ends)
VHH: B16 VHH with L11S, G16D
notes: tested as periplasmic extract; also called 3CRMS94
B19: anti-IL-12Rβ2 VHH clone 20458 (VHH, not shown: small tags and cut ends)
VHH: B16 VHH with Q44E
notes: tested as periplasmic extract; also called 3CRM45
B20: anti-IL-12Rβ2 VHH clone 20454 (VHH, not shown: small tags and cut ends)
VHH: B16 VHH with G16D, K75E, A91V
notes: tested as periplasmic extract; also called 2CRM93
B21: anti-IL-12Rβ2 VHH clone 20519 (VHH, not shown: small tags and cut ends)
VHH: B16 VHH with G16E
notes: tested as periplasmic extract; also called 2CRMS16
B22: anti-IL-12Rβ2 VHH clone 20524 (VHH, not shown: small tags and cut ends)
VHH: B16 VHH with S62P
notes: tested as periplasmic extract; also called 3CRMS14
B23: anti-IL-12Rβ2 VHH clone 20442 (VHH, not shown: small tags and cut ends)
VHH: B16 VHH with A14P
notes: tested as periplasmic extract; also called 2CRM12
B24: anti-IL-12Rβ2 VHH clone 20518 (VHH, not shown: small tags and cut ends)
VHH: B16 VHH with A14P, K43R
notes: tested as periplasmic extract; also called 2CRMS15
B25: anti-IL-12Rβ2 VHH clone 20522 (VHH, not shown: small tags and cut ends)
VHH: B16 VHH with A14P, E107D
notes: tested as periplasmic extract; also called 2CRMS58
B26: anti-IL-12Rβ2 VHH clone 20517 (VHH, not shown: small tags and cut ends)
VHH: B16 VHH with V12A, A14P
notes: tested as periplasmic extract; also called 2CRMS10
B27: anti-IL-12Rβ2 VHH clone 20464 (VHH, not shown: small tags and cut ends)
VHH: B16 VHH with S21F
notes: tested as periplasmic extract; also called 3CRM86
B28: anti-IL-12Rβ2 VHH clone 20446 (VHH, not shown: small tags and cut ends)
VHH: B16 VHH with A14P, I31S
notes: tested as periplasmic extract; also called 2CRM32
B29: anti-IL-12Rβ2 VHH clone 20455 (VHH, not shown: small tags and cut ends)
VHH: B16 VHH with A14P, A97T
notes: tested as periplasmic extract; also called 3CRM6
B30: anti-IL-12Rβ2 VHH clone 20498 (VHH, not shown: small tags and cut ends)
VHH: QVQLQESGGGLVQAGGSLRLSCASSGRTFSSRTVGWFRQAPGKERYFVAAISRDTAYTDYADSVKGRFTISRGNAKNTVYLQMNSLNPEDTAVYYCAASHIYSGSHYISARSSDYMYWGQGTQVTVSS
notes: tested as periplasmic extract; also called 2CAM73
B31: anti-IL-12Rβ2 VHH clone 20542 (VHH, not shown: small tags and cut ends)
VHH: QVQLQESGGGLVQAGGSLRLSCAASGRTFSTYAMGWFRQAPGKEREFVAAISWSGGRTYYADSVKGRFTISRDNAKNTAYLQMSSLIPEDTAVYYCAADPADYTGSYYYQRSYDYWGQGTQVTVSS
notes: tested as periplasmic extract; also called 3CAMS12
B32: anti-IL-12Rβ2 VHH clone 20466 (VHH, not shown: small tags and cut ends)
VHH: B31 VHH with G16D, A24P, A50G, A79V, S84N, I87K, A101M, T104S, Y107L, Y109A
notes: tested as periplasmic extract; also called 2CAM2
B33: anti-IL-12Rβ2 VHH clone 20478 (VHH, not shown: small tags and cut ends)
VHH: QVQLQESGGGLVQAGGSLTLSCAASGMPISFNVLGWFRQIPGKERDFVAAISRDARITDYADSVKGRFTISRDNVKNTVYLQMNSLNPEDTAVYFCAAAYTYSGSHYVTARSSDYHSWGQGTQVTVSS
notes: tested as periplasmic extract; also called 2CAM30

Biological target: T1, biotinylated recombinant human IL-12Rβ2
Test: ELISA, periplasmic extract on biotinylated hIL-12Rβ2, signal over control wells

| Binder | ELISA binding hIL-12RB2/control |
| --- | --- |
| B1 | 0.982 ratio |
| B2 | 1.03 ratio |
| B3 | 1.31 ratio |
| B4 | 0.919 ratio |
| B5 | 1.02 ratio |
| B6 | 0.915 ratio |
| B7 | 1.07 ratio |
| B8 | 1.03 ratio |
| B9 | 0.842 ratio |
| B10 | 0.951 ratio |
| B11 | 0.834 ratio |
| B12 | 1.23 ratio |
| B13 | 1.07 ratio |
| B14 | 1.2 ratio |
| B15 | 1.27 ratio |
| B16 | 0.985 ratio |
| B17 | 1.24 ratio |

| Binder | ELISA binding hIL-12RB2/control |
| --- | --- |
| B18 | 0.858 ratio |
| B19 | 1.47 ratio |
| B20 | 0.996 ratio |
| B21 | 0.973 ratio |
| B22 | 0.93 ratio |
| B23 | 0.993 ratio |
| B24 | 1.01 ratio |
| B25 | 1.01 ratio |
| B26 | 0.968 ratio |
| B27 | 1.29 ratio |
| B28 | 1.01 ratio |
| B29 | 1.4 ratio |
| B30 | 0.994 ratio |
| B31 | 0.849 ratio |
| B32 | 1.03 ratio |
| B33 | 1.02 ratio |

Biological target: T2, biotinylated recombinant mouse IL-12Rβ2
Test: ELISA, periplasmic extract on biotinylated mIL-12Rβ2, signal over control wells

| Binder | ELISA binding mIL-12RB2/control |
| --- | --- |
| B1 | 24 ratio |
| B2 | 17.8 ratio |
| B3 | 10 ratio |
| B4 | 9.31 ratio |
| B5 | 5.12 ratio |
| B6 | 5.66 ratio |
| B7 | 20.2 ratio |
| B8 | 4.89 ratio |
| B9 | 3.38 ratio |
| B10 | 8.98 ratio |
| B11 | 8.57 ratio |
| B12 | 21.8 ratio |
| B13 | 4.78 ratio |
| B14 | 25.6 ratio |
| B15 | 14.5 ratio |
| B16 | 4.68 ratio |
| B17 | 12.1 ratio |

| Binder | ELISA binding mIL-12RB2/control |
| --- | --- |
| B18 | 13.2 ratio |
| B19 | 28.4 ratio |
| B20 | 5.04 ratio |
| B21 | 5.44 ratio |
| B22 | 9.62 ratio |
| B23 | 6.67 ratio |
| B24 | 4.43 ratio |
| B25 | 5.21 ratio |
| B26 | 5.47 ratio |
| B27 | 5.44 ratio |
| B28 | 12 ratio |
| B29 | 11.5 ratio |
| B30 | 6.62 ratio |
| B31 | 4.28 ratio |
| B32 | 8.48 ratio |
| B33 | 8.78 ratio |

Reference: US20260209362A1 (VIB VZW, published 2026)
